This is an account of results in paper PMC2120824 (The Journal of Cell Biology, 1996).

The target of this test is T1, Drosophila septin polypeptide Pnut (Drosophila (endogenous in embryos), UniProt P40797 1-539).
T1 sequence (looked up): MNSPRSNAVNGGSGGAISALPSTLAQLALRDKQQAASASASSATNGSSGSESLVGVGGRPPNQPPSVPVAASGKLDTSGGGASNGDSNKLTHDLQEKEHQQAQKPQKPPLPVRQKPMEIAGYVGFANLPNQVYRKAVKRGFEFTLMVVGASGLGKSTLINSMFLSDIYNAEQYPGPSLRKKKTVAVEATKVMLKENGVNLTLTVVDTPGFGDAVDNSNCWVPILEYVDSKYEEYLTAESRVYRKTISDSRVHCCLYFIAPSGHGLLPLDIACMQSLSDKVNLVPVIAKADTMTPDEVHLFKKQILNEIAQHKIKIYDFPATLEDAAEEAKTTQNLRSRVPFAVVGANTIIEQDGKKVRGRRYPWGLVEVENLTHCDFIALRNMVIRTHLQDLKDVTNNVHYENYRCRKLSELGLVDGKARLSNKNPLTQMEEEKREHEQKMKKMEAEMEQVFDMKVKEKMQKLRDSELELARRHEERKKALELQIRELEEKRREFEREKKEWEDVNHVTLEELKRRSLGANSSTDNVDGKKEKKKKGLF
Put plainly: co-IP.

B1: Drosophila septin polypeptide Sep2 (natural protein, Drosophila (endogenous in embryos), UniProt P54359 1-419, looked up)
chain: MSVEVDFVDKKEVHLRTLKQSGHVGFDSLPDQLVNKSVQNGFVFNVMCIGETGLGKSTLMDTLFNTSFESTPSPHTLPSVKLKAHTYELQESNVRLKLTICDTVGYGDQINKDDSFKAVVDYIDAQFENYLQEELKIKRSLVTCHDSRIHICLYFICPTGHGLKSLDLVCMKKLDSKVNIIPVIAKADTISKVELQRFKAKIIQELNANGVHIYQFPTDDETVAETNTSMNSHIPFAVVGSTEFIKVGNKLIRARQYPWGTVQVENETHCDFVKLREMLIRTNMEDMREKTHTRHYELYRQKRLEQMGFSDVDSDNKPISFQQTFEAKRSNHLAELQSKEEEVRQMFVQRVKEKEAELKESEKDLHAKFEKLKRDHAEEKRKLEESRKALEEDYLDFQRRKQQLATAHHTLTLGKSKKK
The stoichiometry N is the number of molecules, sites or subunits per partner or assembly. Turning to B1, the “stoichiometry N” value was about 1.

B2: Drosophila septin polypeptide Sep1 (natural protein, Drosophila (endogenous in embryos), UniProt P42207 1-361, looked up)
chain: MADTKGFSSIETPGYVGFANLPNQVHRKSVKKGFEFTLMVVGESGLGKSTLVNSLFLTDLYPERIIPDAIEKQKQTVKLEASTVEIEERGVKLRLTVVDTPGFGDAIDNSNSFGAILEYIDEQYERFLRDESGLNRRNIVDNRIHCCFYFISPFGHGLKPLDVEFMKKLHSKVNIVPVIAKADCLTKKEILRLKCRIMQEIESHGIKIYPLPDCDSDEDEDYKEQVKQLKEAVPFAVCGANTLLEVKGKKVRGRLYPWGVVEVENPDHCDFIKLRTMLITHMQDLQEVTQEVHYENYRSDRLAKGIKGKENGVKAERDSSSQVVSNSVLGEKDRILQEKEAELRRMQEMLAQMQARMQAQQ
Turning to B2, the “stoichiometry N” value was about 1.
